US9175313B2, “Three-dimensional structure of isoprene synthase and its use thereof for generating variants” (Danisco US Inc., priority 2009, dated 2015)
“Also recorded” adds a separate entry of the source. Blank lines part the entries; values can stand above or below the molecule they belong to.

Legend:
Assay type in all cases: biochemical
[1] = Specific activity measurement of purified isoprene synthase variants (4 mM DMAPP, 30 C, GC-MS headspace)
Procedure: 1. Initial Purification—Resuspend the pellet in 3 ml of fresh lysis buffer. Break cells by passing them through the French Press using the small cylinder. Centrifuge samples for 1 hour at 30,000×G and collect the supernatant. Retain pellet in order to test for presence of insoluble protein. Pre equilibrate 0.5 mL Ni Sepharose 6 Fast Flow resin (Amersham) in a 20 ml disposable column with 10 mL of Ni wash buffer. Add protein to column and shake for 60 min at 4 C to bind protein. Elute protein with 2.5 mL Ni elution buffer.
2. Buffer Exchange—Equilibrate a PD-10 column (GE Healthcare) with 25 mL of PD-10 buffer. Load protein on to column and elute with 3.5 mL of PD-10 buffer.
10 uL of purified enzyme was incubated with 4 mM DMAPP, 50 mM MgCl2 in a buffer containing 50 mM Tris and 50 mM NaCl (pH=8) to a final volume of 100 uL for 15 min. at 30 C in gas tight 2 mL vials. Reactions were terminated with the addition of 100 uL of […] EDTA, pH=8. Samples were analyzed by GC-MS to determine the concentration of isoprene in the headspace of the vials. All specific activity measurements were performed in triplicate.
(§1) Protein concentration was determined by measuring the absorbance of each protein solution at 280 nm on a Helwlett Pachard 8453 UV-Vis spectrophotometer and converting the absorbance to protein concentration using the extinction coefficient as determined on the Expasy website (Gasteiger E., Hoogland C., Gattiker A., Duvaud S., Wilkins M. R., Appel R. D., Bairoch A.; Protein Identification and Analysis Tools on the ExPASy Server; (In) John M. Walker (ed): The Proteomics Protocols Handbook, Humana Press (2005). pp. 571-607). The protein concentrations of isoprene synthase variants assayed for KM and kcat determination were verified by comparative gel electrophoresis of a dilution series of each protein (FIG. 61).

[2] = kcat, KM and Ki determination, rate vs [DMAPP], fit to uncompetitive substrate inhibition
Procedure: 10 uL of purified enzyme was incubated with DMAPP at concentrations ranging from 1.25 to 20 mM DMAPP in a buffer containing 50 mM Tris, 50 mM MgCl2 and 50 mM NaCl (pH=8) to a final volume of 100 uL for 15 min. at 30 C in gas tight 2 mL vials. Reactions were terminated with the addition of 100 uL of 250 mM EDTA, pH=8. Samples were analyzed by GC-MS to determine the concentration of isoprene in the headspace of the vials. Data were analyzed using Kaleidagraph and fit to following equation for uncompetitive substrate inhibition: rate/E=kcat*S/(KM+S*(1+S/Ki)). All kinetic assays were performed in triplicate.
as §1

[3] = DMAPP assay of site evaluation library (SEL) lysates with ELISA protein quantitation: specific activity ranked as performance index; settings: for isoprene synthase activity of variants relative to parent, in words: SEL analysis of P. alba IspS; for performance index: primary SEL screen, activity on DMAPP per unit weight relative to the parental molecule (parent = 1)
In short: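 Induced E. coli cell pellets lysed in 50 mM Tris pH 8, 25 mM MgCl2, lysozyme, DNase I; 10-fold diluted supernatant reacted with DMAPP (20 mM working stock in 0.1 M phosphate pH 8.2) at 25° C for 30 min, stopped at 70° C for 12 min. Isoprene in headspace quantified by GC-MS.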

Ki ([2]; uncompetitive substrate inhibition by DMAPP, average of three trials ± one standard deviation, read-out: KiDMAPP): 13 ± 1 mM
B1: L494P: P. alba IspS variant L494P; pDW101, strain DW399, SEQ ID NO: 69 (protein)
chain: MEARRSANYEPNSWDYDYLLSSDTDESIEVYKDKAKKLEAEVRREINNEKAEFLTLLELIDNVQRLGLGYRFESDIRGALDRFVSSGGFDAVTKTSLHGTALSFRLLRQHGFEVSQEAFSGFKDQNGNFLENLKEDIKAILSLYEASFLALEGENILDEAKVFAISHLKELSEEKIGKELAEQVNHALELPLHRRTQRLEAVWSIEAYRKKEDANQVLLELAILDYNMIQSVYQRDLRETSRWWRRVGLATKLHFARDRLIESFYWAVGVAFEPQYSDCRNSVAKMFSFVTIIDDIYDVYGTLDELELFTDAVERWDVNAINDLPDYMKLCFLALYNTINEIAYDNLKDKGENILPYLTKAWADLCNAFLQEAKWLYNKSTPTFDDYFGNAWKSSSGPLQLVFAYFAVVQNIKKEEIENLQKYHDTISRPSHIFRLCNDLASASAEIARGETANSVSCYMRTKGISEELATESVMNLIDETWKKMNKEKLGGSPFAKPFVETAINLARQSHCTYHNGDAHTSPDELTRKRVLSVITEPILPFERENLYFQGLEHHHHHH
S.A. ([1]; 50 mM NaCl, 50 mM Tris pH = 8, 30° C.): 950 ± 40 nmol/mg/min
Variant S.A./WT S.A. ([1]; 50 mM NaCl, 50 mM Tris pH = 8, 30° C., ratio to WT): 2.0
specific activity compared to WT isoprene synthase, in words ([1]; 30 C, purified enzyme): increased specific activity
specific activity, times/fold greater than WT ([1]; 30 C, purified enzyme, listed as P): 2.0
specific activity, times/fold greater than WT ([1]; 30 C, purified enzyme, listed as β): 2
KM compared to WT isoprene synthase, in words ([2]; 1.25 to 20 mM DMAPP, 30 C): less than the KM of the WT
rate profile vs [DMAPP] ([2]; 1.25 to 20 mM DMAPP, 30 C): uncompetitive substrate inhibition by DMAPP
Km ([2]; 1.25 to 20 mM DMAPP, 30 C, average of three trials ± one standard deviation): 3.6 ± 0.5 mM
kcat ([2]; 1.25 to 20 mM DMAPP, 30 C, average of three trials ± one standard deviation, in s^-1 (unit assumed)): 2.1 ± 0.1
kcat compared to WT isoprene synthase, in words ([2]; 1.25 to 20 mM DMAPP, 30 C, listed as β): greater than the kcat of the WT
isoprene synthase activity of variants relative to parent, in words [3]: improved activity; also recorded: high performing
performance index [3]: 2.64

B2: T536F: P. alba IspS variant T536F; pDW87, strain DW363, SEQ ID NO: 95 (protein)
chain: MEARRSANYEPNSWDYDYLLSSDTDESIEVYKDKAKKLEAEVRREINNEKAEFLTLLELIDNVQRLGLGYRFESDIRGALDRFVSSGGFDAVTKTSLHGTALSFRLLRQHGFEVSQEAFSGFKDQNGNFLENLKEDIKAILSLYEASFLALEGENILDEAKVFAISHLKELSEEKIGKELAEQVNHALELPLHRRTQRLEAVWSIEAYRKKEDANQVLLELAILDYNMIQSVYQRDLRETSRWWRRVGLATKLHFARDRLIESFYWAVGVAFEPQYSDCRNSVAKMFSFVTIIDDIYDVYGTLDELELFTDAVERWDVNAINDLPDYMKLCFLALYNTINEIAYDNLKDKGENILPYLTKAWADLCNAFLQEAKWLYNKSTPTFDDYFGNAWKSSSGPLQLVFAYFAVVQNIKKEEIENLQKYHDTISRPSHIFRLCNDLASASAEIARGETANSVSCYMRTKGISEELATESVMNLIDETWKKMNKEKLGGSLFAKPFVETAINLARQSHCTYHNGDAHTSPDELTRKRVLSVIFEPILPFERENLYFQGLEHHHHHH
isoprene synthase activity of variants relative to parent, in words [3]: improved isoprene synthase activity; also recorded: high performing
performance index [3]: 3.60
